The supplement of paper PMC5998384

How the values were obtained:
HeLa Kyoto [1] = test: solubility change mitosis vs G1/S (difference of NP-40 vs SDS log2 ratios) (log2 ratio difference); higher = more soluble in mitosis
HeLa Kyoto [2] = test: solubility in G1/S (NP-40 vs SDS abundance) (log2 ratio); higher = more soluble; settings: cell cycle stage: G1/S
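Wherever solubility change mitosis vs G1/S (difference of NP-40 vs SDS log2 ratios) is given: synchronized HeLa Kyoto cells (double thymidine block for G1/S, nocodazole release for mitosis), protein amounts in NP-40 versus SDS lysates quantified by mass spectrometry, three biological replicates.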
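Wherever solubility in G1/S (NP-40 vs SDS abundance) is given: HeLa Kyoto cells arrested at G1/S by double thymidine block, proteins quantified by TMT10plex mass spectrometry in mild NP-40 versus SDS extracts, three biological replicates.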

Chain of POMGNT1 (chain, as listed by the source): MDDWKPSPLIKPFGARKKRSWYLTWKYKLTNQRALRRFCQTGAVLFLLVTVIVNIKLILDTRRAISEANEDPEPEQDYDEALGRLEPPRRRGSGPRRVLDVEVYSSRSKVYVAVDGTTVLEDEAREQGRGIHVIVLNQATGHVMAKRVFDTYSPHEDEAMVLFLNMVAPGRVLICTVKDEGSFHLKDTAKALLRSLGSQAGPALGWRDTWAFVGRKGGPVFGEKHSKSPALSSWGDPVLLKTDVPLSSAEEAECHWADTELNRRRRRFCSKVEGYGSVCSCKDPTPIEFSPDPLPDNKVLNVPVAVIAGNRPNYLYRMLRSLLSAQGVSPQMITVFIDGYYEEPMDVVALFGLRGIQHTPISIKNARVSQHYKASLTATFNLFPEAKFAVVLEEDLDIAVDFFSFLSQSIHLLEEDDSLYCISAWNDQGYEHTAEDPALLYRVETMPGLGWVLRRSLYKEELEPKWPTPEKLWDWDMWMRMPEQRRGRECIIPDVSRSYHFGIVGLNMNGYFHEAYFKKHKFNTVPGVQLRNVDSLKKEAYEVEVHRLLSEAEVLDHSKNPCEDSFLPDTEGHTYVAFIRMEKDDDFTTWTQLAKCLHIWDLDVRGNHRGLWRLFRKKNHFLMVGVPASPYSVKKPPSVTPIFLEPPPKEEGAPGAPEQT

Row | Substance | solubility change mitosis (log2) (HeLa Kyoto [1]) | solubility in G1/S (log2) (HeLa Kyoto [2])
1 | MAQASLLACEGLAGVSLVPTAASKKMMLSQIASKQAENGERAGSPDVLRCSSQGHRKDSDKSRSRKDDDSLSEASHSKKTVKKVVVVEQNGSFQVKIPKNFVCEHCFGAFRSSYHLKRHILIHTGEKPFECDICDMRFIQKYHLERHKRVHSGEKPYQCERCHQCFSRTDRLLRHKRMCQGCQSKTSDGQFSL [ZNF740] | -0.0892 | -0.111
2 | MTFQFNFTIEDHLENELTPIRDGALTLDSSKELSVSESQKGEERDRKCSAEQFDLPQDHLWEHKSMENAAPSQDTDSPLSAASSSRNLEPHGKQPSLRAAKEHAMPKDLKKMLENKVIETLPGFQHVKLSVVKTILLKENFPGENIVSKSFSSHSDLITGVYEGGLKIWECTFDLLAYFTKAKVKFAGKKVLDLGCGSGLLGITAFKGGSKEIHFQDYNSMVIDEVTLPNVVANSTLEDEENDVNEPDVKRCRKPKVTQLYKCRFFSGEWSEFCKLVLSSEKLFVKYDLILTSETIYNPDYYSNLHQTFLRLLSKNGRVLLASKAHYFGVGGGVHLFQKFVEERDVFKTRILKIIDEGLKRFIIEITFKFPG [METTL18] | 0.0132 | -0.31
3 | MSQGPPTGESSEPEAKVLHTKRLYRAVVEAVHRLDLILCNKTAYQEVFKPENISLRNKLRELCVKLMFLHPVDYGRKAEELLWRKVYYEVIQLIKTNKKHIHSRSTLECAYRTHLVAGIGFYQHLLLYIQSHYQLELQCCIDWTHVTDPLIGCKKPVSASGKEMDWAQMACHRCLVYLGDLSRYQNELAGVDTELLAERFYYQALSVAPQIGMPFNQLGTLAGSKYYNVEAMYCYLRCIQSEVSFEGAYGNLKRLYDKAAKMYHQLKKCETRKLSPGKKRCKDIKRLLVNFMYLQSLLQPKSSSVDSELTSLCQSVLEDFNLCLFYLPSSPNLSLASEDEEEYESGYAFLPDLLIFQMVIICLMCVHSLERAGSKQYSAAIAFTLALFSHLVNHVNIRLQAELEEGENPVPAFQSDGTDEPESKEPVEKEEEPDPEPPPVTPQVGEGRKSRKFSRLSCLRRRRHPPKVGDDSDLSEGFESDSSHDSARASEGSDSGSDKSLEGGGTAFDAETDSEMNSQESRSDLEDMEEEEGTRSPTLEPPRGRSEAPDSLNGPLGPSEASIASNLQAMSTQMFQTKRCFRLAPTFSNLLLQPTTNPHTSASHRPCVNGDVDKPSEPASEEGSESEGSESSGRSCRNERSIQEKLQVLMAEGLLPAVKVFLDWLRTNPDLIIVCAQSSQSLWNRLSVLLNLLPAAGELQESGLALCPEVQDLLEGCELPDLPSSLLLPEDMALRNLPPLRAAHRRFNFDTDRPLLSTLEESVVRICCIRSFGHFIARLQGSILQFNPEVGIFVSIAQSEQESLLQQAQAQFRMAQEEARRNRLMRDMAQLRLQLEVSQLEGSLQQPKAQSAMSPYLVPDTQALCHHLPVIRQLATSGRFIVIIPRTVIDGLDLLKKEHPGARDGIRYLEAEFKKGNRYIRCQKEVGKSFERHKLKRQDADAWTLYKILDSCKQLTLAQGAGEEDPSGMVTIITGLPLDNPSVLSGPMQAALQAAAHASVDIKNVLDFYKQWKEIG [SMG5] | -0.207 | -0.176
4 | MAAAVAAPLAAGGEEAAATTSVPGSPGLPGRRSAERALEEAVATGTLNLSNRRLKHFPRGAARSYDLSDITQADLSRNRFPEVPEAACQLVSLEGLSLYHNCLRCLNPALGNLTALTYLNLSRNQLSLLPPYICQLPLRVLIVSNNKLGALPPDIGTLGSLRQLDVSSNELQSLPSELCGLSSLRDLNVRRNQLSTLPEELGDLPLVRLDFSCNRVSRIPVSFCRLRHLQVILLDSNPLQSPPAQVCLKGKLHIFKYLSTEAGQRGSALGDLAPSRPPSFSPCPAEDLFPGHRYDGGLDSGFHSVDSGSKRWSGNESTDEFSELSFRISELAREPRGPRERKEDGSADGDPVQIDFIDSHVPGEDEERGTVEEQRPPELSPGAGDRERAPSSRREEPAGEERRRPDTLQLWQERERRQQQQSGAWGAPRKDSLLKPGLRAVVGGAAAVSTQAMHNGSPKSSASQAGAAAGQGAPAPAPASQEPLPIAGPATAPAPRPLGSIQRPNSFLFRSSSQSGSGPSSPDSVLRPRRYPQVPDEKDLMTQLRQVLESRLQRPLPEDLAEALASGVILCQLANQLRPRSVPFIHVPSPAVPKLSALKARKNVESFLEACRKMGVPEADLCSPSDLLQGTARGLRTALEAVKRVGGKALPPLWPPSGLGGFVVFYVVLMLLLYVTYTRLLGS [LRCH4] | -0.305 | 0.302
5 | MAATDIARQVGEGCRTVPLAGHVGFDSLPDQLVNKSVSQGFCFNILCVGETGLGKSTLMDTLFNTKFEGEPATHTQPGVQLQSNTYDLQESNVRLKLTIVSTVGFGDQINKEDSYKPIVEFIDAQFEAYLQEELKIRRVLHTYHDSRIHVCLYFIAPTGHSLKSLDLVTMKKLDSKVNIIPIIAKADAISKSELTKFKIKITSELVSNGVQIYQFPTDDESVAEINGTMNAHLPFAVIGSTEELKIGNKMMRARQYPWGTVQVENEAHCDFVKLREMLIRVNMEDLREQTHTRHYELYRRCKLEEMGFKDTDPDSKPFSLQETYEAKRNEFLGELQKKEEEMRQMFVQRVKEKEAELKEAEKELHEKFDRLKKLHQDEKKKLEDKKKSLDDEVNAFKQRKTAAELLQSQGSQAGGSQTLKRDKEKKNNPWLCTE [SEPT6] | -0.0909 | 0.186
6 | MVMADGPRHLQRGPVRVGFYDIEGTLGKGNFAVVKLGRHRITKTEVAIKIIDKSQLDAVNLEKIYREVQIMKMLDHPHIIKLYQVMETKSMLYLVTEYAKNGEIFDYLANHGRLNESEARRKFWQILSAVDYCHGRKIVHRDLKAENLLLDNNMNIKIADFGFGNFFKSGELLATWCGSPPYAAPEVFEGQQYEGPQLDIWSMGVVLYVLVCGALPFDGPTLPILRQRVLEGRFRIPYFMSEDCEHLIRRMLVLDPSKRLTIAQIKEHKWMLIEVPVQRPVLYPQEQENEPSIGEFNEQVLRLMHSLGIDQQKTIESLQNKSYNHFAAIYFLLVERLKSHRSSFPVEQRLDGRQRRPSTIAEQTVAKAQTVGLPVTMHSPNMRLLRSALLPQASNVEAFSFPASGCQAEAAFMEEECVDTPKVNGCLLDPVPPVLVRKGCQSLPSNMMETSIDEGLETEGEAEEDPAHAFEAFQSTRSGQRRHTLSEVTNQLVVMPGAGKIFSMNDSPSLDSVDSEYDMGSVQRDLNFLEDNPSLKDIMLANQPSPRMTSPFISLRPTNPAMQALSSQKREVHNRSPVSFREGRRASDTSLTQGIVAFRQHLQNLARTKGILELNKVQLLYEQIGPEADPNLAPAAPQLQDLASSCPQEEVSQQQESVSTLPASVHPQLSPRQSLETQYLQHRLQKPSLLSKAQNTCQLYCKEPPRSLEQQLQEHRLQQKRLFLQKQSQLQAYFNQMQIAESSYPQPSQQLPLPRQETPPPSQQAPPFSLTQPLSPVLEPSSEQMQYSPFLSQYQEMQLQPLPSTSGPRAAPPLPTQLQQQQPPPPPPPPPPRQPGAAPAPLQFSYQTCELPSAASPAPDYPTPCQYPVDGAQQSDLTGPDCPRSPGLQEAPSSYDPLALSELPGLFDCEMLDAVDPQHNGYVLVN [SIK2] | -0.0513 | 0.0463
7 | MVGRSRRRGAAKWAAVRAKAGPTLTDENGDDLGLPPSPGDTSYYQDQVDDFHEARSRAALAKGWNEVQSGDEEDGEEEEEEVLALDMDDEDDEDGGNAGEEEEEENADDDGGSSVQSEAEASVDPSLSWGQRKKLYYDTDYGSKSRGRQSQQEAEEEEREEEEEAQIIQRRLAQALQEDDFGVAWVEAFAKPVPQVDEAETRVVKDLAKVSVKEKLKMLRKESPELLELIEDLKVKLTEVKDELEPLLELVEQGIIPPGKGSQYLRTKYNLYLNYCSNISFYLILKARRVPAHGHPVIERLVTYRNLINKLSVVDQKLSSEIRHLLTLKDDAVKKELIPKAKSTKPKPKSVSKTSAAACAVTDLSDDSDFDEKAKLKYYKEIEDRQKLKRKKEENSTEEQALEDQNAKRAITYQIAKNRGLTPRRKKIDRNPRVKHREKFRRAKIRRRGQVREVRKEEQRYSGELSGIRAGVKKSIKLK [UTP3] | 1.04 | -1.76
8 | MVVPSLKLQDLIEEIRGAKTQAQEREVIQKECAHIRASFRDGDPVHRHRQLAKLLYVHMLGYPAHFGQMECLKLIASSRFTDKRVGYLGAMLLLDERHDAHLLITNSIKNDLSQGIQPVQGLALCTLSTMGSAEMCRDLAPEVEKLLLQPSPYVRKKAILTAVHMIRKVPELSSVFLPPCAQLLHERHHGILLGTITLITELCERSPAALRHFRKVVPQLVHILRTLVTMGYSTEHSISGVSDPFLQVQILRLLRILGRNHEESSETMNDLLAQVATNTDTSRNAGNAVLFETVLTIMDIRSAAGLRVLAVNILGRFLLNSDRNIRYVALTSLLRLVQSDHSAVQRHRPTVVECLRETDASLSRRALELSLALVNSSNVRAMMQELQAFLESCPPDLRADCASGILLAAERFAPTKRWHIDTILHVLTTAGTHVRDDAVANLTQLIGGAQELHAYSVRRLYNALAEDISQQPLVQVAAWCIGEYGDLLLAGNCEEIEPLQVDEEEVLALLEKVLQSHMSLPATRGYALTALMKLSTRLCGDNNRIRQVVSIYGSCLDVELQQRAVEYDTLFRKYDHMRAAILEKMPLVERDGPQADEEAKESKEAAQLSEAAPVPTEPQASQLLDLLDLLDGASGDVQHPPHLDPSPGGALVHLLDLPCVPPPPAPIPDLKVFEREGVQLNLSFIRPPENPALLLITITATNFSEGDVTHFICQAAVPKSLQLQLQAPSGNTVPARGGLPITQLFRILNPNKAPLRLKLRLTYDHFHQSVQEIFEVNNLPVESWQ [AP1G2] | -0.154 | -0.0347
9 | MNGPADGEVDYKKKYRNLKRKLKFLIYEHECFQEELRKAQRKLLKVSRDKSFLLDRLLQYENVDEDSSDSDATASSDNSETEGTPKLSDTPAPKRKRSPPLGGAPSPSSLSLPPSTGFPLQASGVPSPYLSSLASSRYPPFPSDYLALQLPEPSPLRPKREKRPRLPRKLKMAVGPPDCPVGGPLTFPGRGSGAGVGTTLTPLPPPKMPPPTILSTVPRQMFSDAGSGDDALDGDDDLVIDIPE [INO80E] | 0.288 | 0.135
10 | POMGNT1 | -0.0514 | -0.257
11 | MPDQALQQMLDRSCWVCFATDEDDRTAEWVRPCRCRGSTKWVHQACLQRWVDEKQRGNSTARVACPQCNAEYLIVFPKLGPVVYVLDLADRLISKACPFAAAGIMVGSIYWTAVTYGAVTVMQVVGHKEGLDVMERADPLFLLIGLPTIPVMLILGKMIRWEDYVLRLWRKYSNKLQILNSIFPGIGCPVPRIPAEANPLADHVSATRILCGALVFPTIATIVGKLMFSSVNSNLQRTILGGIAFVAIKGAFKVYFKQQQYLRQAHRKILNYPEQEEA [MARCH5] | 0.0312 | -0.272
